Experimental data from patent publication US20160264649A1.

What was measured:
Experiment in all cases: cell-based or functional assay
[1] = target: HIV-1 ZM214 Env (HIV-1)
[2] = target: HIV-1 Du172 Env (HIV-1)
[3] = target: HIV-1 TR0.11 Env (HIV-1)
[4] = target: HIV-1 JR-CSF Env (wild-type) (HIV-1) (UniProt P20871)
[5] = target: MuLV envelope (control pseudovirus)
[6] = target: HIV-1 ZM249 Env (HIV-1)
[7] = target: HIV-1 JR-CSF Env Y318A (HIV-1) (UniProt P20871)
[8] = target: HIV-1 CAP45 Env (HIV-1)
[9] = target: HIV-1 REJ04541 Env (HIV-1)
[10] = target: HIV-1 JR-FL Env E168K (HIV-1)
[11] = target: HIV-1 PVO.4 Env (HIV-1)
[12] = target: HIV-1 ZM233 Env (HIV-1)
[13] = target: HIV-1 CAAN Env (HIV-1)
[14] = target: HIV-1 ADA Env (HIV-1)
[15] = target: HIV-1 AC10 Env (HIV-1)
[16] = target: HIV-1 THRO.18 Env (HIV-1)
[17] = target: HIV-1 92RW020 Env (HIV-1)
[18] = target: HIV-1 DU422 Env (HIV-1)
[19] = target: HIV-1 DU156 Env (HIV-1)
[20] = target: HIV-1 JR-CSF Env I309A (HIV-1) (UniProt P20871)

| Binder | IC50, TZM-bl pseudovirus neutralization [1] | IC50, TZM-bl pseudovirus neutralization [2] | IC50, TZM-bl pseudovirus neutralization [3] | IC50, TZM-bl pseudovirus neutralization [4] | IC50, TZM-bl pseudovirus neutralization [5] | IC50, TZM-bl pseudovirus neutralization [6] | IC50, TZM-bl pseudovirus neutralization [7] | IC50, TZM-bl pseudovirus neutralization [8] | IC50, TZM-bl pseudovirus neutralization [9] | IC50, TZM-bl pseudovirus neutralization [10] | IC50, TZM-bl pseudovirus neutralization [11] | IC50, TZM-bl pseudovirus neutralization [12] | IC50, TZM-bl pseudovirus neutralization [13] | IC50, TZM-bl pseudovirus neutralization [14] | IC50, TZM-bl pseudovirus neutralization [15] | IC50, TZM-bl pseudovirus neutralization [16] | IC50, TZM-bl pseudovirus neutralization [17] | IC50, TZM-bl pseudovirus neutralization [18] | IC50, TZM-bl pseudovirus neutralization [19] | IC50, TZM-bl pseudovirus neutralization [20] |
| --- | --- | --- | --- | --- | --- | --- | --- | --- | --- | --- | --- | --- | --- | --- | --- | --- | --- | --- | --- | --- |
| 1456_A12 (PG16) (TCN-117) (antibody, V domains shown) VH: HEQLVEAGGGVVQPGGSLRLSCLASGFTFHKYGMHWVRQAPGKGLEWVALISDDGMRKYHSDSMWGRVTISRDNSKNTLYLQFSSLRVEDTAMFFCAREAGGPIWHDDVKYYDFNDGYYNYHYMDVWGKGTKVTVSS VL: QSALTQPASVSGSPGQTITISCNGTSRDVGGFDSVSWYQQSPGKAPKVMVFDVSHRPSGMSNRFSGSKSGNTASLTISGLHIEDEGDYFCSSLTDRSHRIFGGGTKLTVLG | > 25 µg/mL | < 0.01 µg/mL | 3.05 µg/mL | 0.001 µg/mL | > 25 µg/mL | < 0.01 µg/mL | > 1 µg/mL | < 0.01 µg/mL | < 0.01 µg/mL | 0.003 µg/mL | 10.4 µg/mL | < 0.01 µg/mL | 10.6 µg/mL | 0.005 µg/mL | < 0.01 µg/mL | 2.08 µg/mL | 0.05 µg/mL | 0.36 µg/mL | < 0.01 µg/mL | > 1 µg/mL |
| 1469_M23 (PG16) (TCN-118) (antibody, V domains shown) VH: QEKLVESGGGVVQPGGSLRLSCLASGFTFHKYGMHWVRQAPGKGLEWVALISDDGMRKYHSDSMWGRVTISRDNSKNTLYLQFSSLKVEDTAMFFCAREAGGPIWHDDVKYYDFNDGYYNYHYMDVWGKGTTVTVSS VL: QSALTQPASVSGSPGQTITISCNGTRSDVGGFDSVSWYQQSPGRAPKVMVFDVSHRPSGISNRFSGSKSGNTASLTISGLHIEDEGDYFCSSLTDRSHRIFGGGTKLTVLG | > 25 µg/mL | < 0.01 µg/mL | 7.52 µg/mL | 0.002 µg/mL | > 25 µg/mL | < 0.01 µg/mL | > 1 µg/mL | < 0.01 µg/mL | 0.39 µg/mL | 0.005 µg/mL | 21.2 µg/mL | < 0.01 µg/mL | 17.7 µg/mL | 0.005 µg/mL | < 0.01 µg/mL | 7.01 µg/mL | 0.05 µg/mL | 0.97 µg/mL | < 0.01 µg/mL | > 1 µg/mL |
| 1489_I13 (PG16) (TCN-120) (antibody, V domains shown) VH: QEQLLESGGGVVQPGGSLRLSCLASGFTFHKYGMHWVRQAPGKGLEWVALISDDGMRKYHSNSMWGRVTISRDNSKNTLYLQFSSLKVEDTAMFFCAREAGGPIWHDDVKYYDFNDGYYNYHYMDVWGKGTTVTVSS VL: QSALTQPASVSGSPGQTITISCNGTSSDVGGFDSVSWYQQSPGKAPKVMVFDVSHRPSGISNRFSGSKSGNTASLTISGLHIEDEGDYFCSSLTDRSHRIFGGGTKVTVLG | > 25 µg/mL | < 0.01 µg/mL | 10.9 µg/mL | 0.002 µg/mL | > 25 µg/mL | < 0.01 µg/mL | > 1 µg/mL | < 0.01 µg/mL | 0.34 µg/mL | 0.005 µg/mL | 20.6 µg/mL | < 0.01 µg/mL | 24.9 µg/mL | 0.008 µg/mL | < 0.01 µg/mL | 7.41 µg/mL | 0.03 µg/mL | 1.87 µg/mL | < 0.01 µg/mL | > 1 µg/mL |
